In the supplement of paper PMC10065799, “High-throughput profiling of sequence recognition by tyrosine kinases and SH2 domains using bacterial peptide display” (eLife, 2023):

Legend:
c-Src = test: phosphorylation enrichment, bacterial display (enrichment ratio); higher = better substrate or ligand; peptides without Tyr show the background
EPHB1 = EPHB1 (UniProt P54762); test: as above
MERTK = MERTK (UniProt Q12866); test: as above
c-Abl (mouse) = test: as above
Fyn = Fyn (UniProt P06241); test: as above
Fes = Fes (UniProt P07332); test: as above
Fer (mouse) = test: as above
Hck = Hck (UniProt P08631); test: as above
FGFR3 = FGFR3 (UniProt P22607); test: as above
FGFR1 = FGFR1 (UniProt P11362); test: as above
Jak2 = Jak2 (UniProt O60674); test: as above
EPHB2 = EPHB2 (UniProt P29323); test: as above
AncSZ = test: as above
SHP2-C SH2 = test: SH2 binding enrichment of the phosphorylated peptide, bacterial display (enrichment ratio); higher = better substrate or ligand; peptides without Tyr show the background
Grb2 SH2 = Grb2 SH2 (UniProt P62993); test: as above
c-Src SH2 = test: as above
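Throughout, for SH2 binding enrichment of the phosphorylated peptide, bacterial display: peptide library displayed on the E. coli surface as eCPX fusions, selected cells deep-sequenced, score is each peptide's frequency after selection divided by its frequency in the input.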
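Throughout, for phosphorylation enrichment, bacterial display: 11-residue human phosphosite peptides and single-mutation variants displayed on the E. coli surface, counted by deep sequencing, each peptide's frequency after selection divided by its frequency in the unselected input library; frequency after pTyr selection over input frequency; kinase dosed for 20-30% of maximal phosphorylation in three min.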

EPHB2, sequence (P29323 whole entry, looked up): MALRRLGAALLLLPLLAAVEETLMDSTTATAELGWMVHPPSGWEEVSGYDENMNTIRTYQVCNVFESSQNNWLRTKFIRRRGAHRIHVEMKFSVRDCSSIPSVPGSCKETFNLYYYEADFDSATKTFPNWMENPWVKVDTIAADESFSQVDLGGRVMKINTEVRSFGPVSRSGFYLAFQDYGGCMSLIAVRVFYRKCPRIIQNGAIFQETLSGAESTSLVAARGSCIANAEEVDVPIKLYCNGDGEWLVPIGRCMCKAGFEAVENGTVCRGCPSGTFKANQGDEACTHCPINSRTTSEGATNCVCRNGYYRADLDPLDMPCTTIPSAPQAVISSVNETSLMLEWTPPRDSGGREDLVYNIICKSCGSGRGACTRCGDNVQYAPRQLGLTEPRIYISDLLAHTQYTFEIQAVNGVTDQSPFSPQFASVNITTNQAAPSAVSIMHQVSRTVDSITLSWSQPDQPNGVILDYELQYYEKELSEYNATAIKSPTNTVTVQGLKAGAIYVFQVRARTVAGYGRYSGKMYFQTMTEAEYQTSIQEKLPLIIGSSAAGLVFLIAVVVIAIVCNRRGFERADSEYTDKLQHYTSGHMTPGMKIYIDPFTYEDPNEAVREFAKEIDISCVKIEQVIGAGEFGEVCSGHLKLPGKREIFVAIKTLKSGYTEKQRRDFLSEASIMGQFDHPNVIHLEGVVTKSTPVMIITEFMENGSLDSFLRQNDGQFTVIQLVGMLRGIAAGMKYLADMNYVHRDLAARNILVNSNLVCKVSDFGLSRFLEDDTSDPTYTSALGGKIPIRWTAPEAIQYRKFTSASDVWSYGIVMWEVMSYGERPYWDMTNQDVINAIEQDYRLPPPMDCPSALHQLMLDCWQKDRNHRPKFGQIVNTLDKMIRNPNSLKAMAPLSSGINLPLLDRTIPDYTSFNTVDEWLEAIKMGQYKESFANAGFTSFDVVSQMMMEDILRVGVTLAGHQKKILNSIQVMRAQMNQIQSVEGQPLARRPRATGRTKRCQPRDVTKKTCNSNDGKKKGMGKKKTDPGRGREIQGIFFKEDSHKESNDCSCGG
FGFR3, sequence (P22607 whole entry, looked up): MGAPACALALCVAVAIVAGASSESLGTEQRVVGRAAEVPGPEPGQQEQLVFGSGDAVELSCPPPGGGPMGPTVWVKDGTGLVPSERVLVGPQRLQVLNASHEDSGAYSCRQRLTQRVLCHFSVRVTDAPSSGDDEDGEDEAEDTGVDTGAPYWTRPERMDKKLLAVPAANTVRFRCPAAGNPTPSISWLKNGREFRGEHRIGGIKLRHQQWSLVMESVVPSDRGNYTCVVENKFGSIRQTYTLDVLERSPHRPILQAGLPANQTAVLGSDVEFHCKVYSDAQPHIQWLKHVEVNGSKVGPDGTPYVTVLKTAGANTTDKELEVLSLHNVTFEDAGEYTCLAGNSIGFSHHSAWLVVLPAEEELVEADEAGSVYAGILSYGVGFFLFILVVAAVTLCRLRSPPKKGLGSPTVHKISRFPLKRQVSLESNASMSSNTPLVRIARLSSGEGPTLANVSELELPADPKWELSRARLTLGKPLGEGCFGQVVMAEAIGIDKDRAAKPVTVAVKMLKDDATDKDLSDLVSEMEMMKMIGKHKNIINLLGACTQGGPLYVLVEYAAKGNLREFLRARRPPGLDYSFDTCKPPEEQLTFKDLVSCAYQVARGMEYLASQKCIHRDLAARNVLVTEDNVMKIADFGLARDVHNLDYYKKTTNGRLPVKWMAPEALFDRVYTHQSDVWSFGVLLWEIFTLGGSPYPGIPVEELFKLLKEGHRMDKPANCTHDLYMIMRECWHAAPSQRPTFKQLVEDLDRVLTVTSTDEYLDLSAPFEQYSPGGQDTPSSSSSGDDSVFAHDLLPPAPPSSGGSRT
Fyn, sequence (P06241 whole entry, looked up): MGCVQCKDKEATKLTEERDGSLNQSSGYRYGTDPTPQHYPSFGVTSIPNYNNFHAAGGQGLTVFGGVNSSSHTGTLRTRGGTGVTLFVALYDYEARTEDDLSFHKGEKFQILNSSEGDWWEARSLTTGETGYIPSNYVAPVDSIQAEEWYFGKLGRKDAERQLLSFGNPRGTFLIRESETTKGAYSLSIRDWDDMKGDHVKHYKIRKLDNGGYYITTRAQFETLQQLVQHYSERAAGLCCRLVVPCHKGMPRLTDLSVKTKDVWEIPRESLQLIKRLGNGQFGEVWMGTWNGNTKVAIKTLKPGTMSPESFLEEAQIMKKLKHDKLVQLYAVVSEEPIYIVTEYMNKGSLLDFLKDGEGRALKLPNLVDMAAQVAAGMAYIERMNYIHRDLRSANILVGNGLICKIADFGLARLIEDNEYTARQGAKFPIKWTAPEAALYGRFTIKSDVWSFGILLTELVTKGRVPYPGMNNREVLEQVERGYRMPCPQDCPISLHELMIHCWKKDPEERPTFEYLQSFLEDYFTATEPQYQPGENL
EPHB1, sequence (P54762 whole entry, looked up): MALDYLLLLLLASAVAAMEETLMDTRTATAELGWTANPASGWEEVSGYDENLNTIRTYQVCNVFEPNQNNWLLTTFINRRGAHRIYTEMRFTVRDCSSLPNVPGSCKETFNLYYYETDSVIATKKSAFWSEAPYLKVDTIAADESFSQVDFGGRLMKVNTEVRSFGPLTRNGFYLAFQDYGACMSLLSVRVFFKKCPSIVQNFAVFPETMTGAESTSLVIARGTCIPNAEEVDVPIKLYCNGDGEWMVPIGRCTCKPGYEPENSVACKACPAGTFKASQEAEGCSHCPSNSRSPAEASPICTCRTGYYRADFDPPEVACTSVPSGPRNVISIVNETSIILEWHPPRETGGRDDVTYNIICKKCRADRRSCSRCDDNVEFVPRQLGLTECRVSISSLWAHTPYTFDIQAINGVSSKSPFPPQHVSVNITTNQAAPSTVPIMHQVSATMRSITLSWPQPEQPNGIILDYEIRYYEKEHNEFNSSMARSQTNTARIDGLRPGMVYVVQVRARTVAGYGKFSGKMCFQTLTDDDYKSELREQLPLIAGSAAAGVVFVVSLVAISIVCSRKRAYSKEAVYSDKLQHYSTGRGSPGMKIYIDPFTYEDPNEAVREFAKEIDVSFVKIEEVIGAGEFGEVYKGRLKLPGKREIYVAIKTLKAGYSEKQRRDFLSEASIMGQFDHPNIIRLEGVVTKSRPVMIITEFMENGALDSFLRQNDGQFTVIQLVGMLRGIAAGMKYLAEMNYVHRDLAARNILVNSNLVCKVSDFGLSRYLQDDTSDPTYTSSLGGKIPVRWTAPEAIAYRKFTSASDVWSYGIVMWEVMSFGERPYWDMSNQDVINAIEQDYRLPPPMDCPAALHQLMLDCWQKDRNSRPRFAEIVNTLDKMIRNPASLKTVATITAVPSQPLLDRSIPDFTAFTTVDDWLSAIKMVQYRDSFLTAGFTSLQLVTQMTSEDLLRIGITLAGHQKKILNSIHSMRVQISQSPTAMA
MERTK, sequence (Q12866 whole entry, looked up): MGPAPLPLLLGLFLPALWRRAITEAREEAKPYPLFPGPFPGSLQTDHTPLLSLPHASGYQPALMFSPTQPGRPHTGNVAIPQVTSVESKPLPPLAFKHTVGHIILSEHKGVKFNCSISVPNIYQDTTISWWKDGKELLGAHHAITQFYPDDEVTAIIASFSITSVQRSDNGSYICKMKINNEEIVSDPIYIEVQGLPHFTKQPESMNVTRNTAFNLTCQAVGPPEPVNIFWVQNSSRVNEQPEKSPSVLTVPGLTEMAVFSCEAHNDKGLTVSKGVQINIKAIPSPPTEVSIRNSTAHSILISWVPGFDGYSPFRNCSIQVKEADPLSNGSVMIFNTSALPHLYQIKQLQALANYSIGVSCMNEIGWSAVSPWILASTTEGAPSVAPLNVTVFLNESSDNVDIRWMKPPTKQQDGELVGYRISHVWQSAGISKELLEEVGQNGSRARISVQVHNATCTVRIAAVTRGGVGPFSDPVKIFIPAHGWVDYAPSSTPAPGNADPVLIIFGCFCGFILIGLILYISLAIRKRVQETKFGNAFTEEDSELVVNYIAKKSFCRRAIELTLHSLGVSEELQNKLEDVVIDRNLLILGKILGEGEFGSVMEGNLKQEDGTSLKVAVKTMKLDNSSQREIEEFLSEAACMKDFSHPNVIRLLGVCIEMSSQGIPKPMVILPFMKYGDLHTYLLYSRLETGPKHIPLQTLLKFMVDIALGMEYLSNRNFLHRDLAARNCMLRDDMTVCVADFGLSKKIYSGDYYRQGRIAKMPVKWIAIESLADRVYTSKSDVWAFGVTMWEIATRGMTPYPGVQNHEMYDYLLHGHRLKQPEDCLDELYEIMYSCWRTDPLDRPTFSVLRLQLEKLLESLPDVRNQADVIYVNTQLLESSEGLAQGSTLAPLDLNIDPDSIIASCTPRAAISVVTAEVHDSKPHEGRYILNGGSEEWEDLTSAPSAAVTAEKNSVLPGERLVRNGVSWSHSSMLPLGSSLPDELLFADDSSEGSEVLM
Hck, sequence (P08631 whole entry, looked up): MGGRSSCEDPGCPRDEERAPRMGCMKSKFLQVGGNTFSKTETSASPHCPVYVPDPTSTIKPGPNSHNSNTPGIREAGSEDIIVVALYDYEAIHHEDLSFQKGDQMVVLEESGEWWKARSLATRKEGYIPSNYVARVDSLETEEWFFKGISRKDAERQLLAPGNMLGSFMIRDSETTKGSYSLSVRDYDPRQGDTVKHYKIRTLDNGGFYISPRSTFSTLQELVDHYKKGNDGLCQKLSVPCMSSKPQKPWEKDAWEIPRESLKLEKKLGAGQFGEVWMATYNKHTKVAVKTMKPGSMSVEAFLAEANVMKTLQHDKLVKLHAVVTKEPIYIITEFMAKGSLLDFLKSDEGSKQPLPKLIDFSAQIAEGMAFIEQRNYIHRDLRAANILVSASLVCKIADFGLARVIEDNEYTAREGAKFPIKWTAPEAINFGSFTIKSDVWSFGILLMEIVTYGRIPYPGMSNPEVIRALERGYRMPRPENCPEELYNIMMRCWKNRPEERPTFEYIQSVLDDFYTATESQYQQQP

| Sequence | phosphorylation enrichment (c-Src) | phosphorylation enrichment (EPHB1) | phosphorylation enrichment (MERTK) | phosphorylation enrichment (c-Abl (mouse)) | phosphorylation enrichment (Fyn) | phosphorylation enrichment (Fes) | phosphorylation enrichment (Fer (mouse)) | phosphorylation enrichment (Hck) | phosphorylation enrichment (FGFR3) | phosphorylation enrichment (FGFR1) | phosphorylation enrichment (Jak2) | phosphorylation enrichment (EPHB2) | phosphorylation enrichment (AncSZ) | SH2 binding enrichment (SHP2-C SH2) | SH2 binding enrichment (Grb2 SH2) | SH2 binding enrichment (c-Src SH2) |
| --- | --- | --- | --- | --- | --- | --- | --- | --- | --- | --- | --- | --- | --- | --- | --- | --- |
| FQNGMYGLHQD [SGSH_Y89_H84Y_YF] | 0.828 | 0.437 | 0.456 | 0.552 | 0.599 | 0.709 | 0.454 | 0.598 | 0.555 | 0.462 | 0.733 | 0.543 | 0.665 | 0.724 | 0.748 | 0.459 |
| FRIGPYQPSVP [MATR3_Y784_N787S_YF] | 0.478 | 0.604 | 0.412 | 0.536 | 0.453 | 0.868 | 0.5 | 0.537 | 0.616 | 0.517 | 0.662 | 0.543 | 0.712 | 0.782 | 0.843 | 0.657 |
| FSDQVYRQHRK [TH_Y230_R233H] | 0.452 | 0.335 | 0.357 | 0.819 | 0.378 | 0.644 | 0.355 | 0.447 | 0.441 | 0.388 | 0.529 | 0.452 | 0.555 | 0.539 | 1.03 | 0.624 |
| FSNKLYFQLEQ [PDPR_Y109_YF] | 0.621 | 0.849 | 1.64 | 0.796 | 0.636 | 1.19 | 0.661 | 0.694 | 2.7 | 3.05 | 1.49 | 0.664 | 1.35 | 0.562 | 0.626 | 0.523 |
| FSNPAYYVLEG [INPPL1_Y986_N982S] | 1.43 | 0.614 | 6.51 | 0.591 | 1.32 | 0.848 | 0.426 | 0.778 | 7.89 | 10.1 | 3.92 | 0.509 | 0.834 | 0.99 | 0.918 | 4.44 |
| FSTDFYRVGGH [NTRK2_Y707_YF] | 0.478 | 0.637 | 0.429 | 0.756 | 0.493 | 0.813 | 0.471 | 0.396 | 0.569 | 0.459 | 0.704 | 0.405 | 0.722 | 0.702 | 0.849 | 0.56 |
| FTAVGYHKHFT [NOMO1_Y1137_I1141F] | 0.552 | 0.252 | 0.424 | 0.491 | 0.431 | 0.935 | 0.449 | 0.426 | 0.589 | 0.449 | 0.782 | 0.366 | 0.614 | 1.5 | 0.865 | 1.04 |
| FTGDIYSNSNL [LZTR1_Y141_YF] | 5.54 | 0.903 | 1.1 | 0.831 | 6.36 | 0.849 | 2.87 | 7.46 | 0.502 | 0.667 | 0.756 | 0.738 | 0.957 | 0.586 | 0.721 | 0.415 |
| FTTIHYNFMCN [TP53_Y234_C229Y_YF] | 0.455 | 0.74 | 0.495 | 0.987 | 0.496 | 1.4 | 0.565 | 0.63 | 0.887 | 0.682 | 1.24 | 0.65 | 1.03 | 0.658 | 1.08 | 0.634 |
| FTYDPYSEEEP [IL2RB_Y387_D391E] | 1.69 | 0.652 | 0.524 | 0.915 | 1.14 | 1.25 | 0.601 | 0.825 | 0.818 | 0.5 | 1.27 | 0.572 | 1.22 | 0.699 | 0.92 | 0.817 |
| GAEIVYKSPVV [MAPT_Y711] | 0.526 | 0.747 | 0.558 | 18.3 | 0.533 | 0.904 | 0.416 | 0.497 | 0.672 | 0.478 | 0.694 | 0.581 | 0.892 | 0.63 | 0.758 | 0.418 |
| GAVGNYSGGLA [MGMT_Y158] | 0.335 | 0.554 | 0.422 | 0.43 | 0.374 | 0.765 | 0.483 | 0.408 | 0.61 | 0.453 | 0.419 | 0.48 | 0.57 | 0.622 | 0.551 | 0.367 |
| GCRSKYVRLWG [KCNQ1_Y184_G186R] | 0.495 | 0.383 | 0.444 | 0.492 | 0.425 | 0.696 | 0.472 | 0.461 | 0.486 | 0.462 | 0.636 | 0.409 | 0.628 | 1.6 | 1.38 | 1.54 |
| GDFFCYLAEVA [YWHAG_Y133_R132C_YF] | 0.484 | 0.863 | 0.546 | 1.12 | 0.702 | 1.52 | 0.865 | 0.608 | 0.922 | 0.557 | 1.39 | 0.655 | 1.33 | 0.701 | 0.618 | 0.491 |
| GEEIKDMLWLS [OTC_Y55_Y55D] | 0.361 | 0.448 | 0.425 | 0.672 | 0.475 | 1 | 0.428 | 0.446 | 0.566 | 0.475 | 0.822 | 0.462 | 0.913 | 0.584 | 0.807 | 0.501 |
| GEEIKYMLWLS [OTC_Y55] | 0.518 | 0.592 | 0.703 | 1.19 | 0.493 | 1.28 | 0.745 | 0.645 | 0.934 | 0.682 | 1.21 | 0.62 | 1.24 | 0.714 | 0.646 | 0.346 |
